Results taken from paper PMC4868757, “PDIP46 (DNA polymerase δ interacting protein 46) is an activating factor for human DNA polymerase δ” (Oncotarget, 2016).
Each block holds one binder with its values, some of them ahead of it.

How the values were obtained:
[1] = biological target: T1, Recombinant human DNA polymerase δ holoenzyme (Pol δ4), heterotetramer of p125, p50, p68 and p12 (human, UniProt P28340 1-1107; P49005 1-469; Q15054 1-466; Q9HCU8 1-107); assay: pull-down; GST fusion protein incubated with the test protein in 50 mM Tris-HCl pH 7.8, 1 mM EDTA, 150 mM NaCl, 0.1% NP-40, 0.2 mM PMSF, 1 h at 4°C; captured on glutathione beads, washed 8 times; western blot of the test protein; details: both partners purified
T1 construct: p125, catalytic subunit of human Pol δ; p50 subunit of human Pol δ; p68 subunit of human Pol δ; p12 subunit of human Pol δ; also called Pol δ heterotetramer; source: insect cells, purified to near homogeneity; copies: + + +
T1 sequence (P28340 whole entry, stated change not applied, chain 1 of 4, the tested form may be a part): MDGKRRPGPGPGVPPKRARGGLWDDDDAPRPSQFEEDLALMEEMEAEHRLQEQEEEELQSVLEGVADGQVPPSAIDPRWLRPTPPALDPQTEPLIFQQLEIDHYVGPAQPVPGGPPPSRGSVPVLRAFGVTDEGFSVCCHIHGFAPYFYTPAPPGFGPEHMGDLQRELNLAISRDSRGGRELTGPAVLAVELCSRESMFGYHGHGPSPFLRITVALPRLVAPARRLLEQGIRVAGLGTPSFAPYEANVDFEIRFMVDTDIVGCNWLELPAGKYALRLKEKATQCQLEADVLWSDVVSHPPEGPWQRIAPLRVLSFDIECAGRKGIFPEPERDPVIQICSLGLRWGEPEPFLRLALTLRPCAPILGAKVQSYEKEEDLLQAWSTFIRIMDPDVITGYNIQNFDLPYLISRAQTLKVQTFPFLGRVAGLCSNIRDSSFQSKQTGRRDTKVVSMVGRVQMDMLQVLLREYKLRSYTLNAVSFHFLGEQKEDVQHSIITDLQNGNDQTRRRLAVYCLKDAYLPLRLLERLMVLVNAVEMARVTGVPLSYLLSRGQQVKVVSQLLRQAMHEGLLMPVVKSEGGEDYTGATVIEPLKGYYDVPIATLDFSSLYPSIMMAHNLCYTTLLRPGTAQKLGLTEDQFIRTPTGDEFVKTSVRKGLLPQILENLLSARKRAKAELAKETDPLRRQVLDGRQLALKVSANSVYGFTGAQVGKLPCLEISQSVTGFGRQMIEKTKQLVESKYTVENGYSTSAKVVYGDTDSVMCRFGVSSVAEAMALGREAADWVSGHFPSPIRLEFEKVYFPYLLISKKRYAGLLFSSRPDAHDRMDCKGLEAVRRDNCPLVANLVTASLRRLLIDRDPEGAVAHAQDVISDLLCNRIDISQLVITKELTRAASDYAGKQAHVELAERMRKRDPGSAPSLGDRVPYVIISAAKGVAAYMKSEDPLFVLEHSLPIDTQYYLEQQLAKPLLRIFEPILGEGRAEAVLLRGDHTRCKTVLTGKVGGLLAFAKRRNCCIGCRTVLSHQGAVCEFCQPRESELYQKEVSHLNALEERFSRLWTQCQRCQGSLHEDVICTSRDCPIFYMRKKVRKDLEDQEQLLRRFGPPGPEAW
T1 sequence (P49005 whole entry, stated change not applied, chain 2 of 4, the tested form may be a part): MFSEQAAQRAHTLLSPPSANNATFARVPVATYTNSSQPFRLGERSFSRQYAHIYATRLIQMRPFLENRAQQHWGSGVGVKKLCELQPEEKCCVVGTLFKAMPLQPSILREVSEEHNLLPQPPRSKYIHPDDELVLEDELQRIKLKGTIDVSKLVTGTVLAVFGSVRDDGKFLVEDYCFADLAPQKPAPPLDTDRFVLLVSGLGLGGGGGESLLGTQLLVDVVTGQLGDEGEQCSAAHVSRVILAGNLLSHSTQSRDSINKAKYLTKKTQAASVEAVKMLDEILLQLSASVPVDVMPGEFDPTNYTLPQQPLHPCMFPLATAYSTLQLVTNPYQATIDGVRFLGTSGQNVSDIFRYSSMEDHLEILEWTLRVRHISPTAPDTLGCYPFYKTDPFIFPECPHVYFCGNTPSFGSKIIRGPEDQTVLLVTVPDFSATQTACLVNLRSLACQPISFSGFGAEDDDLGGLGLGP
T1 sequence (Q15054 whole entry, stated change not applied, chain 3 of 4, the tested form may be a part): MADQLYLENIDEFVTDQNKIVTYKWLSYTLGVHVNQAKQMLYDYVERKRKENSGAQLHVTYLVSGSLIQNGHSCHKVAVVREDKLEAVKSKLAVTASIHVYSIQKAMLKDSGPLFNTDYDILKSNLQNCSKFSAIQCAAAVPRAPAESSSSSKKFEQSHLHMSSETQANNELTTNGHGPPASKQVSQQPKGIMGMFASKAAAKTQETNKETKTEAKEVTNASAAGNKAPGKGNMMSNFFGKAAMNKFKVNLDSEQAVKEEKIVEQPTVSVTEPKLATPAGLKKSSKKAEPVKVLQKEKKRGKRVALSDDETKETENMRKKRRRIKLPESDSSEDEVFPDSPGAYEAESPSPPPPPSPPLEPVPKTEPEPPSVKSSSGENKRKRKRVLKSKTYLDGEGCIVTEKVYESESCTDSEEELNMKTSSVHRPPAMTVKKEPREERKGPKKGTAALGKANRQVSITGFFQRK
T1 sequence (Q9HCU8 whole entry, stated change not applied, chain 4 of 4, the tested form may be a part): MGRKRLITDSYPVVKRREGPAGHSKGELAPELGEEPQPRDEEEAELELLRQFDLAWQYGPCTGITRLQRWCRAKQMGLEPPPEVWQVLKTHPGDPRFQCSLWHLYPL

[2] = biological target: T2, His-tagged p50 subunit of Pol δ (human, UniProt P49005 1-469); assay: as above; details: both partners purified
T2 construct: p50 subunit of human DNA polymerase δ; Expressed in the PET33b vector; also called his-p50; source: E. coli BL21DE3 (pLysS), purified (Ni-NTA agarose)
T2 sequence (P49005 whole entry, stated change not applied): as the sequence (P49005 whole entry, stated change not applied, chain 2 of 4, the tested form may be a part) above

His-tagged PDIP46 = biological target: T3, His-tagged PDIP46 (human, UniProt Q9BY77 1-421); assay: as above; details: both partners purified
T3 construct: PDIP46 (SKAR, POLDIP3), human; Expressed in the pTacTac vector with eight histidine residues added at its N-terminus; also called his-PDIP46; source: E. coli BL21DE3 (pLysS), purified (Ni-NTA agarose); not shown: His8, N-terminal, kept
T3 sequence (looked up): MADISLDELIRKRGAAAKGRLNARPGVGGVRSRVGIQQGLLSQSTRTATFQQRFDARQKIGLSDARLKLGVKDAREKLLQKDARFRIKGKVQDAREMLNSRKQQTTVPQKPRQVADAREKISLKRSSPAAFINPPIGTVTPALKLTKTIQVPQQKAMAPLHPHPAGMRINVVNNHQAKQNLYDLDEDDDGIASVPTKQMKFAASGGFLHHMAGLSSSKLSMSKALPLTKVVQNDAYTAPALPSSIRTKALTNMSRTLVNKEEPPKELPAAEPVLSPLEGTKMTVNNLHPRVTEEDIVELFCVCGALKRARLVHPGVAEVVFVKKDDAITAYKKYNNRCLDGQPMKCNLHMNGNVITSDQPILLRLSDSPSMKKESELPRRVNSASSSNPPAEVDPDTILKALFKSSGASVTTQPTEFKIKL

Human PCNA, recombinant = biological target: T4, Human PCNA, recombinant (human, UniProt P12004 1-261); assay: as above; details: both partners purified
T4 construct: PCNA, human; source: E. coli, purified
T4 sequence (P12004 whole entry): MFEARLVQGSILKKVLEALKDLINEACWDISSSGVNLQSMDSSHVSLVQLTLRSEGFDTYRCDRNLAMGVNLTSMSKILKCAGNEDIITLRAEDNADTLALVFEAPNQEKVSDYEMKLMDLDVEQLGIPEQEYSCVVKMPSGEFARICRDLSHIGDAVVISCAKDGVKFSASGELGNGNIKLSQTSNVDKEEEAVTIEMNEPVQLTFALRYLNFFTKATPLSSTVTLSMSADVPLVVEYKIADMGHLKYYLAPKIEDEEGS

[3] = biological target: DNA polymerase delta (Pol δ4) (Homo sapiens, UniProt P28340); assay: polymerase activity stimulation assay
Sequence of DNA polymerase delta (Pol δ4) (P28340 whole entry, stated change not applied, chain 1 of 4): as the sequence (P28340 whole entry, stated change not applied, chain 1 of 4, the tested form may be a part) above
Sequence of DNA polymerase delta (Pol δ4) (P49005 whole entry, stated change not applied, chain 2 of 4, further chain): as the sequence (P49005 whole entry, stated change not applied, chain 2 of 4, the tested form may be a part) above
Sequence of DNA polymerase delta (Pol δ4) (Q15054 2-466, stated change not applied, chain 3 of 4, further chain): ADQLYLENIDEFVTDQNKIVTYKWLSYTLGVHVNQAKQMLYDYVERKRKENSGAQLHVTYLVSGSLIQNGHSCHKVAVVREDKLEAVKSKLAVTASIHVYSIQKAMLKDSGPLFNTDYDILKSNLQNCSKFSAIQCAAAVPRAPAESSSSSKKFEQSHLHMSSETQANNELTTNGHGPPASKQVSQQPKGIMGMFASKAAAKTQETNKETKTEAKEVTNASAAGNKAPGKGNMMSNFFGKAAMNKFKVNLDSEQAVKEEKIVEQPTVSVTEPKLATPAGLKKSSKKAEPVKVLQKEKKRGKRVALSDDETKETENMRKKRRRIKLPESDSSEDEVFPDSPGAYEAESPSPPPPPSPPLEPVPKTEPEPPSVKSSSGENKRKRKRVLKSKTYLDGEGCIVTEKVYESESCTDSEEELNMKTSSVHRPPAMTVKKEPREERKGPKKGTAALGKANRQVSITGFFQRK
Sequence of DNA polymerase delta (Pol δ4) (Q9HCU8 whole entry, stated change not applied, chain 4 of 4, further chain): as the sequence (Q9HCU8 whole entry, stated change not applied, chain 4 of 4, the tested form may be a part) above

B1: GST-PDIP46 (DNA polymerase δ interacting protein 46), wild type, full length (natural protein, human, UniProt Q9BY77 1-421, looked up)
chain: MADISLDELIRKRGAAAKGRLNARPGVGGVRSRVGIQQGLLSQSTRTATFQQRFDARQKIGLSDARLKLGVKDAREKLLQKDARFRIKGKVQDAREMLNSRKQQTTVPQKPRQVADAREKISLKRSSPAAFINPPIGTVTPALKLTKTIQVPQQKAMAPLHPHPAGMRINVVNNHQAKQNLYDLDEDDDGIASVPTKQMKFAASGGFLHHMAGLSSSKLSMSKALPLTKVVQNDAYTAPALPSSIRTKALTNMSRTLVNKEEPPKELPAAEPVLSPLEGTKMTVNNLHPRVTEEDIVELFCVCGALKRARLVHPGVAEVVFVKKDDAITAYKKYNNRCLDGQPMKCNLHMNGNVITSDQPILLRLSDSPSMKKESELPRRVNSASSSNPPAEVDPDTILKALFKSSGASVTTQPTEFKIKL
notes: PDIP46 (SKAR, POLDIP3), human, full-length; Subcloned in pGEX-5X-3; The functional rows used untagged PDIP46 (his-Sumo fusion, tags removed by Sumo protease, Mono S), not this GST fusion; also called GST-p46; SKAR; source: E. coli BL21DE3 (pLysS), purified (glutathione beads)
binding result [1]: binds
binding result [2]: binds

B4: PDIP46 (protein)
chain: ADISLDELIRKRGAAAKGRLNARPGVGGVRSRVGIQQGLLSQSTRTATFQQRFDARQKIGLSDARLKLGVKDAREKLLQKDARFRIKGKVQDAREMLNSRKQQTTVPQKPRQVADAREKISLKRSSPAAFINPPIGTVTPALKLTKTIQVPQQKAMAPLHPHPAGMRINVVNNHQAKQNLYDLDEDDDGIASVPTKQMKFAASGGFLHHMAGLSSSKLSMSKALPLTKVVQNDAYTAPALPSSIRTKALTNMSRTLVNKEEPPKELPAAEPVLSPLEGTKMTVNNLHPRVTEEDIVELFCVCGALKRARLVHPGVAEVVFVKKDDAITAYKKYNNRCLDGQPMKCNLHMNGNVITSDQPILLRLSDSPSMKKESELPRRVNSASSSNPPAEVDPDTILKALFKSSGASVTTQPTEFKIKL
Kd [3]: 34 nM

The remaining lines, values ahead:

binding result (His-tagged PDIP46): binds
B2: GST-p50 deletion construct containing residues 252-400 of p50 (domain or fragment, human, UniProt P49005 252-400, looked up)
chain: TQSRDSINKAKYLTKKTQAASVEAVKMLDEILLQLSASVPVDVMPGEFDPTNYTLPQQPLHPCMFPLATAYSTLQLVTNPYQATIDGVRFLGTSGQNVSDIFRYSSMEDHLEILEWTLRVRHISPTAPDTLGCYPFYKTDPFIFPECPH
notes: Subcloned in pGEX-5X-3; source: E. coli BL21DE3 (pLysS), purified (glutathione beads)

binding result (Human PCNA, recombinant): binds
B3: GST-PDIP46 N-terminal fragment (residues 1-141) (domain or fragment, human, UniProt Q9BY77 1-141, looked up)
chain: MADISLDELIRKRGAAAKGRLNARPGVGGVRSRVGIQQGLLSQSTRTATFQQRFDARQKIGLSDARLKLGVKDAREKLLQKDARFRIKGKVQDAREMLNSRKQQTTVPQKPRQVADAREKISLKRSSPAAFINPPIGTVTP
notes: as for B2
